Data on 80 sequences can be found in the supplement of paper PMC7877785.

± gives the uncertainty stated by the source.

A short description of the data set: self-splicing fitness, log relative to wild type (ln ratio); higher = more splicing; Tetrahymena group I intron in knt gene, E. coli kanamycin selection, DiMSum; sequences stand for … in CUCUCU…GGAGGGAAAAGUUAUCAGGCAUGCACCUGGUAGCUAGUCUUUAAACCAAUAGAUUGCAUCGGUUUAAAAGGCAAGACCGUCAAAUUGCGGGAAAGGGGUCAACAGCCGUUCAGUACCAAGUCUCAGGGGAAACUUUGAGAUGGCCUUGCAAAGGGUAUGGUAAUAAGCUGACGGACAUGGUCCUAACCACGCAGCCAAGUCCUAAGUCAACAGAUCUUCUGUUGAUAUGGAUGCAGUUCACAGACUAAAUGUCGGUCGGGGAAGAUGUAUUCUUCUCAUAAGAUAUAGUCGGACCUCUCCUUAAUGGGAGCUAGCGGAUGAAGUGAUGCAACACUGGAGCCGCUGGGAACUAAUUUGUAUGCGAAAGUAUAUUGAUUAGUUUUGGAGUACUCGUGGUCG
Summed up: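 A randomised library covering all eight P1ex-region intron nucleotides was built with the intron in the knt kanamycin-resistance gene on pET-22b(+) and held in E. coli BL21(DE3). Cells were grown overnight at 37°C or 30°C on LB agar, with or without 25 μg/mL kanamycin, plus 100 μg/mL carbenicillin, 50 μM IPTG and 0.2% rhamnose, and pooled colonies were amplicon-sequenced on an Illumina HiSeq 2500. DiMSum fitness is the error-weighted combination of wild-type-normalised replicate fold changes, kanamycin versus none.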

UGACAGCAAUAUUACGAGUC: the “self-splicing fitness (ln)” value (30 °C) is -3.94 ± 0.23 and the “self-splicing fitness (ln)” value (37 °C) was -3.33 ± 0.32.

UGACAGCAAUAUUACGCAUG: the “self-splicing fitness (ln)” value was -1.03 ± 0.055 (30 °C) and -0.328 ± 0.061 (37 °C). For UGACAGCAAUAUUACGCGAA the same measures were -1.32 ± 0.12 and -0.476 ± 0.14. For UGACAGCAAUAUUACGGAGA the same measures were -3.83 ± 0.29 and -1.98 ± 0.15. On to UGACAGCAAUAUUACGGGGG, for which the “self-splicing fitness (ln)” value by setting is: (30 °C) -2.61 ± 0.19; (37 °C) -2.93 ± 0.2. For UGACAGCAAUAUUACGGUGA the same measures were -0.731 ± 0.052 and 0.000318 ± 0.071. On to UGACAGCAAUAUUACGUAGU, for which the “self-splicing fitness (ln)” value is, setting by setting: (30 °C) -3 ± 0.17; (37 °C) -1.22 ± 0.14. In the case of UGACAGCAAUAUUACGUCAG, the “self-splicing fitness (ln)” value by setting is: (30 °C) -2.12 ± 0.096; (37 °C) -1.75 ± 0.11. For the sequence UGACAGCAAUAUUACGUCCU, the “self-splicing fitness (ln)” value reads like this: (30 °C) -0.124 ± 0.076; (37 °C) 0.379 ± 0.099.

Turning to UGACAGCAAUAUUACGUCUA, the “self-splicing fitness (ln)” value was -0.75 ± 0.09 (30 °C) and -0.464 ± 0.098 (37 °C). In the case of UGACAGCAAUAUUACGUGCC, the “self-splicing fitness (ln)” value (30 °C) was -1.3 ± 0.12 and the “self-splicing fitness (ln)” value (37 °C) is -1.58 ± 0.15.

Consider UGACAGCAAUAUUACGUGUC, for which the “self-splicing fitness (ln)” value was -3.44 ± 0.16 (30 °C) and -2.98 ± 0.16 (37 °C).

Take UGACAGCAAUAUUACGUUGC: the “self-splicing fitness (ln)” value by setting is: (30 °C) -3.03 ± 0.2; (37 °C) -2.89 ± 0.23. For UGAGAGCAAUAUUACGAAAU the same measures were -2.66 ± 0.22 and -1.75 ± 0.32. Turning to UGAGAGCAAUAUUACGACGC, the “self-splicing fitness (ln)” value (30 °C) was -1.61 ± 0.35. For UGAGAGCAAUAUUACGAUCU, the “self-splicing fitness (ln)” value reads like this: (30 °C) -2.49 ± 0.45; (37 °C) -1.1 ± 0.45. Regarding UGAGAGCAAUAUUACGAUGU, the “self-splicing fitness (ln)” value (30 °C) was -3.27 ± 0.25. For the sequence UGAGAGCAAUAUUACGCAAC, the “self-splicing fitness (ln)” value (37 °C) was -1.88 ± 0.47. Take UGAGAGCAAUAUUACGCAAU: the “self-splicing fitness (ln)” value (37 °C) was -3 ± 0.43.

Turning to UGAGAGCAAUAUUACGCACG, the “self-splicing fitness (ln)” value reads like this: (30 °C) -2.77 ± 0.19; (37 °C) -0.671 ± 0.2. For the sequence UGAGAGCAAUAUUACGCAGA, the “self-splicing fitness (ln)” value (30 °C) is -3.1 ± 0.34. Take UGAGAGCAAUAUUACGCGAA: the “self-splicing fitness (ln)” value (30 °C) was -4.25 ± 0.4 and the “self-splicing fitness (ln)” value (37 °C) was -1.53 ± 0.28. Consider UGAGAGCAAUAUUACGCGUU, for which the “self-splicing fitness (ln)” value runs as follows: (30 °C) -3.23 ± 0.2; (37 °C) -3.69 ± 0.34.

As to UGAGAGCAAUAUUACGGAUA, the “self-splicing fitness (ln)” value (37 °C) was -2.5 ± 0.26.

Turning to UGAGAGCAAUAUUACGGCAA, the “self-splicing fitness (ln)” value runs as follows: (30 °C) -1.61 ± 0.33; (37 °C) -1.15 ± 0.18. Regarding UGAGAGCAAUAUUACGGGAG, the “self-splicing fitness (ln)” value reads like this: (30 °C) -3.96 ± 0.29; (37 °C) -1.93 ± 0.21.

Take UGAGAGCAAUAUUACGGGCG: the “self-splicing fitness (ln)” value is -2.04 ± 0.21 (30 °C) and -0.434 ± 0.19 (37 °C).

With UGAGAGCAAUAUUACGGUGC, for the setting “30 °C”, the “self-splicing fitness (ln)” value was -2.02 ± 0.21. For UGAGAGCAAUAUUACGGUGG, the “self-splicing fitness (ln)” value was -3.4 ± 0.17 (30 °C) and -2.82 ± 0.2 (37 °C). For UGAGAGCAAUAUUACGUCCA the same measures were -1.04 ± 0.14 and -0.218 ± 0.17. Consider UGAGAGCAAUAUUACGUUGC, for which the “self-splicing fitness (ln)” value (30 °C) was -2.35 ± 0.22 and the “self-splicing fitness (ln)” value (37 °C) is -1.06 ± 0.33.

UGAUAGCAAUAUUACGAACA: the “self-splicing fitness (ln)” value by setting is: (30 °C) -0.502 ± 0.18; (37 °C) 0.324 ± 0.26. UGAUAGCAAUAUUACGACGA: the “self-splicing fitness (ln)” value was -0.476 ± 0.16 (30 °C) and 0.0569 ± 0.18 (37 °C). As for UGAUAGCAAUAUUACGAGCC, where the note is “30 °C”, the “self-splicing fitness (ln)” value is -3.7 ± 0.47.

Consider UGAUAGCAAUAUUACGAUAA, for which the “self-splicing fitness (ln)” value reads like this: (30 °C) -2.12 ± 0.16; (37 °C) -0.841 ± 0.17. UGAUAGCAAUAUUACGAUGU: the “self-splicing fitness (ln)” value (37 °C) is -2.04 ± 0.34.

Regarding UGAUAGCAAUAUUACGAUUG, the “self-splicing fitness (ln)” value is, setting by setting: (30 °C) -0.719 ± 0.12; (37 °C) -0.301 ± 0.15. On to UGAUAGCAAUAUUACGCACA, for which the “self-splicing fitness (ln)” value is, setting by setting: (30 °C) 0.0791 ± 0.086; (37 °C) -0.216 ± 0.1.

For the sequence UGAUAGCAAUAUUACGCACU, the “self-splicing fitness (ln)” value by setting is: (30 °C) -0.651 ± 0.14; (37 °C) -0.218 ± 0.14. For UGAUAGCAAUAUUACGCCGG the same measures were -1.5 ± 0.22 and 0.564 ± 0.23. For UGAUAGCAAUAUUACGCGUG the same measures were -1.18 ± 0.072 and -0.0417 ± 0.078.

As to UGAUAGCAAUAUUACGGACC, where the note is “30 °C”, the “self-splicing fitness (ln)” value was -1.26 ± 0.26. On to UGAUAGCAAUAUUACGGCAA, for which the “self-splicing fitness (ln)” value was -1.36 ± 0.15 (30 °C) and -0.418 ± 0.15 (37 °C). For UGAUAGCAAUAUUACGGCUU the same measures were -1.2 ± 0.19 and 0.584 ± 0.17. Consider UGAUAGCAAUAUUACGGGAG, for which the “self-splicing fitness (ln)” value runs as follows: (30 °C) -3.64 ± 0.29; (37 °C) -2.19 ± 0.21. With UGAUAGCAAUAUUACGGUAA, for the setting “37 °C”, the “self-splicing fitness (ln)” value is -1.62 ± 0.35. For the sequence UGAUAGCAAUAUUACGGUCC, the “self-splicing fitness (ln)” value (30 °C) is -0.857 ± 0.1 and the “self-splicing fitness (ln)” value (37 °C) is 0.318 ± 0.14. With UGAUAGCAAUAUUACGGUUA, the “self-splicing fitness (ln)” value runs as follows: (30 °C) -0.585 ± 0.067; (37 °C) -0.467 ± 0.085. For UGAUAGCAAUAUUACGUAAC the same measures were -3.41 ± 0.17 and -2.76 ± 0.22.

In the case of UGAUAGCAAUAUUACGUCAA, the “self-splicing fitness (ln)” value is, setting by setting: (30 °C) -2.44 ± 0.18; (37 °C) -0.767 ± 0.16.

In the case of UGAUAGCAAUAUUACGUCCA, the “self-splicing fitness (ln)” value (30 °C) is 0.015 ± 0.09 and the “self-splicing fitness (ln)” value (37 °C) was 0.154 ± 0.12.

Regarding UGAUAGCAAUAUUACGUCCU, the “self-splicing fitness (ln)” value was -0.302 ± 0.07 (30 °C) and 0.376 ± 0.1 (37 °C). For UGAUAGCAAUAUUACGUCGG the same measures were -1.4 ± 0.12 and -0.72 ± 0.12. As to UGAUAGCAAUAUUACGUUCG, the “self-splicing fitness (ln)” value reads like this: (30 °C) -0.432 ± 0.076; (37 °C) 0.4 ± 0.1. On to UGCAAGCAAUAUUACGAAGU, for which the “self-splicing fitness (ln)” value (30 °C) is -3 ± 0.49. Take UGCAAGCAAUAUUACGAAUC: the “self-splicing fitness (ln)” value (30 °C) is -3.56 ± 0.29.

On to UGCAAGCAAUAUUACGAAUU, for which the “self-splicing fitness (ln)” value runs as follows: (30 °C) -2.91 ± 0.14; (37 °C) -3.01 ± 0.23. For UGCAAGCAAUAUUACGACAC the same measures were -2.23 ± 0.24 and -1.35 ± 0.21. For UGCAAGCAAUAUUACGACUU, the “self-splicing fitness (ln)” value by setting is: (30 °C) -2.34 ± 0.1; (37 °C) -0.599 ± 0.11. For UGCAAGCAAUAUUACGAGGG the same measures were -3.56 ± 0.23 and -1.77 ± 0.17. For UGCAAGCAAUAUUACGAUAA the same measures were -0.8 ± 0.1 and -0.087 ± 0.12.

In the case of UGCAAGCAAUAUUACGAUUC, the “self-splicing fitness (ln)” value was -3.54 ± 0.32 (30 °C) and -1.31 ± 0.21 (37 °C). For UGCAAGCAAUAUUACGCCCA the same measures were -0.543 ± 0.14 and 0.796 ± 0.23.

As for UGCAAGCAAUAUUACGCGAU, the “self-splicing fitness (ln)” value reads like this: (30 °C) -3.34 ± 0.17; (37 °C) -2.15 ± 0.2. As to UGCAAGCAAUAUUACGCGCA, the “self-splicing fitness (ln)” value was -2.17 ± 0.23 (30 °C) and -1.86 ± 0.29 (37 °C). Turning to UGCAAGCAAUAUUACGCGUG, the “self-splicing fitness (ln)” value was -3.54 ± 0.14 (30 °C) and -3.15 ± 0.2 (37 °C).

Take UGCAAGCAAUAUUACGGGAC: for the setting “30 °C”, the “self-splicing fitness (ln)” value was -4 ± 0.37. UGCAAGCAAUAUUACGGGCC: the “self-splicing fitness (ln)” value is -1.31 ± 0.12 (30 °C) and -1.26 ± 0.14 (37 °C). In the case of UGCAAGCAAUAUUACGGGUU, the “self-splicing fitness (ln)” value (30 °C) was -2.62 ± 0.095 and the “self-splicing fitness (ln)” value (37 °C) was -1.23 ± 0.093. As to UGCAAGCAAUAUUACGGUGG, the “self-splicing fitness (ln)” value (30 °C) was -2.3 ± 0.074 and the “self-splicing fitness (ln)” value (37 °C) is -1.21 ± 0.085. UGCAAGCAAUAUUACGUAAG: the “self-splicing fitness (ln)” value by setting is: (30 °C) -2.75 ± 0.13; (37 °C) -2.64 ± 0.2. For UGCAAGCAAUAUUACGUAAU the same measures were -1.85 ± 0.089 and -1.86 ± 0.13.

For the sequence UGCAAGCAAUAUUACGUACC, the “self-splicing fitness (ln)” value by setting is: (30 °C) -2.18 ± 0.16; (37 °C) -1.02 ± 0.23. For UGCAAGCAAUAUUACGUCCC the same measures were -1.37 ± 0.28 and -0.65 ± 0.24. For UGCAAGCAAUAUUACGUCUC the same measures were -1.76 ± 0.12 and -2.67 ± 0.25. UGCAAGCAAUAUUACGUCUU: the “self-splicing fitness (ln)” value is, setting by setting: (30 °C) -4.52 ± 0.31; (37 °C) -0.686 ± 0.1. For UGCAAGCAAUAUUACGUGUA the same measures were -1.96 ± 0.073 and -1.35 ± 0.084. For UGCAAGCAAUAUUACGUUGA the same measures were -2.47 ± 0.1 and -1.32 ± 0.11. For UGCAAGCAAUAUUACGUUGC the same measures were -3.3 ± 0.31 and -3.31 ± 0.39. As for UGCCAGCAAUAUUACGACCA, the “self-splicing fitness (ln)” value stood at 0.429 ± 0.1 (30 °C) and 0.0668 ± 0.13 (37 °C).
